Reference: patent publication US20260000597A1 (priority 2018, published 2026)

Target: AchR (Homo sapiens, UniProt P02708)
Assay: ELISA of screened peptide phages on AchR versus streptavidin (OD450)
Assay type: binding
Conditions: ELISA of selected 11-mer (L2) peptide phages on AchR, absorbance at 450 nm; Spep-2 positive control
Experimental: The output phages for the 4th and 5th rounds of biopanning in Example 13-1 were inoculated to E. coli, and plated on the agar plates so as to form 100-200 plaques per plate. The plaques were inoculated on 1 ml of an SB liquid medium containing 50 μg/ml of ampicillin by using a sterile tip, and cultured with shaking at 37° C. for 5 hours, followed by the addition of 30 μl of helper phages, and then cultured at 37° C. and 200 rpm for one day. The culture was centrifuged at 12,000 rpm for 2 minutes to collect supernatant, and 2% BSA was added to the supernatant, and used for phage screening.
In a 96-well ELISA plate, 5 μg/ml AchR or streptavidin was added at 50 μl per well, and left at 4° C. overnight. The next day, the solution in each well was discarded, followed by the addition of 2% BSA, and then blocked at room temperature for 2 hours. After the solution was all discarded, the wells were washed three times with Tris (20 mM, pH7). In addition, 100 μl of each of the phage solutions obtained from the above-prepared plaques was dispensed into wells and left at 30° C. for 1 hour. After the solution in the wells was all discarded, the wells were washed three times with Tris (20 mM, pH 7), and then the HRP-conjugated anti-M13 antibody diluted 1:2,000 was added at 100 μl per well, followed by culture at 30° C. for 1 hour. After the wells were washed three times with Tris (20 mM, pH7), 100 μl of tetramethylbenzidine was added to each well to induce a color development reaction, and then the reaction was stopped by the addition of 100 μl of 1M H2SO4, and the absorbance at 450 nm (OD450) was measured. The measured absorbance was converted into a ratio of AchR absorbance to streptavidin absorbance (AchR signal/streptavidin signal), and the results are shown in FIGS. 14 to 16.

Sequence of AchR (P02708 21-457): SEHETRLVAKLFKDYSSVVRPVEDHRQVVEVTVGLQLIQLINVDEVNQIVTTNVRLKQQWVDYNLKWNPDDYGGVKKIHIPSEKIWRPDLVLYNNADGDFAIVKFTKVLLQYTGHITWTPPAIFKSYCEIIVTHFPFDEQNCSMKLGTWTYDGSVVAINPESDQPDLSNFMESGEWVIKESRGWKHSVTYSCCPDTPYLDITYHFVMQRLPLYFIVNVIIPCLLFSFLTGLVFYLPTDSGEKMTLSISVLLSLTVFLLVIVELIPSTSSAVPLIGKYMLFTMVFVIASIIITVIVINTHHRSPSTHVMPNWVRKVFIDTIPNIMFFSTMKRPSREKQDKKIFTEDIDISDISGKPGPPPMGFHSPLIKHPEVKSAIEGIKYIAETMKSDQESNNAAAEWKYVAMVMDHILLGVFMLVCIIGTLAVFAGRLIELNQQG

| Substance | OD |
| --- | --- |
| L2-91 (PIDKFKRGMVR; AchR binding peptide) [Peptide L2-91] | 0.517 |
| L2-92 (FVGRWKREYAK; AchR binding peptide) [Peptide L2-92] | 0.634 |
| L2-93 (FNPKMRKVCLR; AchR binding peptide) [Peptide L2-93] | 0.635 |
| L2-94 (NPGKTKRWLQR; AchR binding peptide) [Peptide L2-94] | 0.642 |
| L2-95 (IMDKRRKPGCR; AchR binding peptide) [Peptide L2-95] | 0.522 |
| L2-96 (ISDKAKRQHFK; AchR binding peptide) [Peptide L2-96] | 0.708 |
| L2-97 (DVNKYRKHSHK; AchR binding peptide) [Peptide L2-97] | 0.531 |
| L2-98 (LMLRGKRLTTK; AchR binding peptide) [Peptide L2-98] | 0.626 |
| L2-99 (CSLRARKEEWR; AchR binding peptide) [Peptide L2-99] | 0.52 |
| L2-100 (MNYRCKRVQER; AchR binding peptide) [Peptide L2-100] | 0.551 |
| L2-101 (NGVRERKWQSK; AchR binding peptide) [Peptide L2-101] | 0.592 |
| L2-102 (YTSRCKKQPRK; AchR binding peptide) [Peptide L2-102] | 0.608 |
| L2-103 (QYNKGRKIHVR; AchR binding peptide) [Peptide L2-103] | 0.571 |
| L2-104 (PEDRQRKTWFK; AchR binding peptide) [Peptide L2-104] | 0.563 |
| L2-105 (IEMKPRKFGVK; AchR binding peptide) [Peptide L2-105] | 0.488 |
| L2-106 (QRWKWRKSLAR; AchR binding peptide) [Peptide L2-106] | 0.926 |
| L2-107 (VKHKERKCQRR; AchR binding peptide) [Peptide L2-107] | 0.681 |
| L2-108 (QQDRPKRDIPK; AchR binding peptide) [Peptide L2-108] | 0.716 |
| L2-109 (YPTKGKRCMIR; AchR binding peptide) [Peptide L2-109] | 0.596 |
| L2-111 (GYFRPRKETCK; AchR binding peptide) [Peptide L2-111] | 0.594 |
| L2-112 (CFFKMRRCNTK; AchR binding peptide) [Peptide L2-112] | 0.646 |
| L2-113 (QNDKDRKLSHR; AchR binding peptide) [Peptide L2-113] | 0.64 |
| L2-114 (QVTKSKRVAFK; AchR binding peptide) [Peptide L2-114] | 0.643 |
| L2-115 (VRAKHRKSSLR; AchR binding peptide) [Peptide L2-115] | 0.837 |
| L2-116 (SHSRQRKTPLR; AchR binding peptide) [Peptide L2-116] | 0.699 |
| L2-117 (DNGKIRRCLGK; AchR binding peptide) [Peptide L2-117] | 0.607 |

| Substance | OD |
| --- | --- |
| L2-118 (FLRRLKKVHWK; AchR binding peptide) [Peptide L2-118] | 0.65 |
| L2-119 (FCRRSKKIGRR; AchR binding peptide) [Peptide L2-119] | 0.56 |
| L2-120 (PAARTKRMYGR; AchR binding peptide) [Peptide L2-120] | 0.607 |
| L2-121 (HETKPKKDGLR; AchR binding peptide) [Peptide L2-121] | 0.492 |
| L2-122 (MGDRPRKWDSR; AchR binding peptide) [Peptide L2-122] | 0.558 |
| L2-123 (HDTKCKKMYAK; AchR binding peptide) [Peptide L2-123] | 0.473 |
| L2-124 (NVVRGRRLECR; AchR binding peptide) [Peptide L2-124] | 0.556 |
| L2-125 (PADKGRREVMK; AchR binding peptide) [Peptide L2-125] | 0.481 |
| L2-126 (AMMKYKKEFPK; AchR binding peptide) [Peptide L2-126] | 0.605 |
| L2-127 (YIIRWKRQMTR; AchR binding peptide) [Peptide L2-127] | 0.569 |
| L2-128 (SPWRIRRQNIR; AchR binding peptide) [Peptide L2-128] | 0.516 |
| L2-129 (TCIKYRRAHTK; AchR binding peptide) [Peptide L2-129] | 0.603 |
| L2-130 (GYDRARKGTLR; AchR binding peptide) [Peptide L2-130] | 0.64 |
| L2-131 (MTLKHRRVYIK; AchR binding peptide) [Peptide L2-131] | 0.462 |
| L2-132 (LFTRIKRLVCK; AchR binding peptide) [Peptide L2-132] | 0.515 |
| L2-133 (DFSRDRRCLSK; AchR binding peptide) [Peptide L2-133] | 0.526 |
| L2-134 (VWNKVKRWLER; AchR binding peptide) [Peptide L2-134] | 0.44 |
| L2-135 (FPGKNRKYCSR; AchR binding peptide) [Peptide L2-135] | 0.557 |
| L2-136 (YTSKNKRGCPR; AchR binding peptide) [Peptide L2-136] | 0.454 |
| L2-137 (CACKQRRATSR; AchR binding peptide) [Peptide L2-137] | 0.452 |
| L2-138 (IMERQRKSQHR; AchR binding peptide) [Peptide L2-138] | 0.509 |
| L2-139 (SVLRCRKCSMK; AchR binding peptide) [Peptide L2-139] | 0.528 |
| L2-140 (YPQKLRRTALK; AchR binding peptide) [Peptide L2-140] | 0.445 |
| L2-141 (SSHKGKRAQSK; AchR binding peptide) [Peptide L2-141] | 0.462 |
| L2-142 (DNPRFRKTILK; AchR binding peptide) [Peptide L2-142] | 0.512 |
| L2-143 (AIIKFRKVQWK; AchR binding peptide) [Peptide L2-143] | 0.401 |

| Substance | OD |
| --- | --- |
| L2-144 (PYTRCRKEICK; AchR binding peptide) [Peptide L2-144] | 0.521 |
| L2-145 (MNEKPKKNDQK; AchR binding peptide) [Peptide L2-145] | 0.468 |
| L2-146 (LIGKFKKPFYR; AchR binding peptide) [Peptide L2-146] | 0.605 |
| L2-147 (TWCKHKKLDMK; AchR binding peptide) [Peptide L2-147] | 0.641 |
| L2-148 (DSNKVRKCSSK; AchR binding peptide) [Peptide L2-148] | 0.604 |
| L2-149 (LPMKQRKCEFR; AchR binding peptide) [Peptide L2-149] | 0.465 |
| L2-150 (EDVRVKRQTCR; AchR binding peptide) [Peptide L2-150] | 0.579 |
| L2-151 (TQCKDRRVSDR; AchR binding peptide) [Peptide L2-151] | 0.749 |
| L2-152 (IALKPKRVWLK; AchR binding peptide) [Peptide L2-152] | 0.681 |
| L2-153 (GHQRGKREGSR; AchR binding peptide) [Peptide L2-153] | 0.688 |
| L2-154 (NPFKYKKICPK; AchR binding peptide) [Peptide L2-154] | 0.736 |
| L2-155 (NEARIKKCDVK; AchR binding peptide) [Peptide L2-155] | 0.742 |
| L2-156 (YGLRMRKWYMK; AchR binding peptide) [Peptide L2-156] | 0.683 |
| L2-157 (NFYKCRKLQCK; AchR binding peptide) [Peptide L2-157] | 0.731 |
| L2-158 (MMTKYKKTCCK; AchR binding peptide) [Peptide L2-158] | 0.73 |
| L2-159 (CNQKTKKIAEK; AchR binding peptide) [Peptide L2-159] | 0.696 |
| L2-160 (ADIRMKKWYPK; AchR binding peptide) [Peptide L2-160] | 0.721 |
| L2-161 (AWFRVKRSNCR; AchR binding peptide) [Peptide L2-161] | 0.579 |
| L2-162 (NCDRTRKHWAR; AchR binding peptide) [Peptide L2-162] | 0.584 |
| L2-163 (PHARTRKNITK; AchR binding peptide) [Peptide L2-163] | 0.725 |
| L2-164 (VPTKMKKYETK; AchR binding peptide) [Peptide L2-164] | 0.733 |
| L2-165 (AYPKFRKTFNR; AchR binding peptide) [Peptide L2-165] | 0.718 |
| L2-166 (QQLRLRKLCGK; AchR binding peptide) [Peptide L2-166] | 0.579 |
| L2-167 (MFMRNKKLAWR; AchR binding peptide) [Peptide L2-167] | 0.584 |
| L2-168 (GGAKNKKVVSR; AchR binding peptide) [Peptide L2-168] | 0.725 |
